The target in the assay is cathepsin B (Homo sapiens, UniProt P07858). The assay is described as follows: Electrochemical (AC voltammetry) proteolysis of peptide-Fc substrates on 3x3 Au MEA, Example 1. Format: biochemical. Further details: purchased R&D Systems Inc. (Minneapolis, MN). To be noted: for 1/τ AVG: average of 3 channels per peptide, 50 mM MES buffer pH=5.0, FIG. 8; for average values of 1/τ: three peptides on one MEA, 3 channels each, 50 mM MES pH=5.0. From the text:
N-Fluorenylmethyloxycarbonyl (Fmoc) protected amino acids, amino acid attached 2-chlorotrityl resins, 1-[bis(dimethylamino)methylene]-1H-1,2,3-triazolo[4,5-b]pyridinium 3-oxide hexafluorophosphate (HATU), and 2-(1H-benzotriazol-1-yl)-1,1,3,3-tetramethyluronium hexafluorophosphate (HBTU) were purchased from Chem-Impex International, Inc. (Wood Dale, IL) and AAPPTEC LLC (Louisville, KY). Potassium hexacyanoferrate (II) trihydrate, potassium nitrate, 1-ethyl-3-(3-dimethylaminopropyl)carbodiimide (EDC), N-hydroxysulfosuccinimide (Sulfo-NHS), 6-mercapto-1-hexanol, and 6-mercapto-1-hexanoic acid were obtained from Sigma-Aldrich (St. Louis, MO). Dithiothreitol (DTT), sodium phosphate dibasic heptahydrate (Na2HPO4·7H2O), sodium phosphate monobasic (NaH2PO4) and 2-(4-morpholino)ethanesulfonic acid ([…]) were purchased from Fisher Scientific (Hampton, NH). […] Cathepsin B solutions were activated by incubation in 25 mM MES buffer (pH=5.0) containing 5 mM DTT for 15 min before proteolysis experiments.
Electrochemical measurements were performed using an Ivium n-Stat Potentiostat (Eindhoven, The Netherlands) outfitted with five dual channel modules, allowing up to ten independent working electrodes to function simultaneously with a common reference and counter electrodes. […] In this study, the nine leads from the potentiostat (FIG. 9b) were interfaced with a breakout box, which was then connected to a custom-built electrochemical cell via a ribbon cable (FIG. 9c). The sensor chip consists of nine lithographically patterned Au working microelectrodes placed in the custom-built electrochemical cell (FIG. 9d) and electrical contact was made via pogo pins. All measurements were performed using a common mercury/mercurous sulfate reference electrode (Hg/Hg2SO4, MSE) filled with a saturated solution of K2SO4 (CH Instruments, Austin, TX) and a common Pt wire counter electrode.
Prior to use, the MEAs were sonicated in acetone for 1 minute, subsequently rinsed with methanol and isopropanol for 15 s and then dried by blowing with nitrogen. Next, the electrodes were placed in the experimental cell and electrochemically cleaned by cycling from −0.60 to 0.70 V vs. MSE in 0.10 M phosphate buffer (pH=7.4). For the experiments using an MEA modified with the same peptide-Fc substrate (i.e., H-15) on all nine microelectrodes, the whole chip was incubated in a mixture of 1.0 mM 6-mercapto-1-hexanol and 0.2 mM 6-mercapto-1-hexanoic acid in deionized water for 40 min to form a self-assembled monolayer (SAM). This step passivated the entire Au microelectrode surface while leaving adequate spacing between the exposed carboxyl functionalities. Next, the electrodes were incubated in a solution containing 2.0 mM peptide-Fc substrate (i.e., H-3, H-15, or H-16), 0.20 g/l EDC and 0.20 g/l sulfo-NHS for 2 hours at room temperature so that the peptides were covalently attached to the carboxyl groups of the SAM through the formation of amide bonds. The low ratio of carboxyl to hydroxyl groups at the SAM surface ensured a large separation between the peptide-Fc molecules which was important to reduce the steric hindrance during subsequent proteolysis measurements. Finally, the electrodes were rinsed with deionized water to remove any non-bound peptide-Fc substrate that may be physiosorbed on the surface. For multiplex experiments, the chip was masked with a ˜1.2 mm thick polydimethylsiloxane (PDMS) film punched with a 3×3 array of ˜0.7 mm diameter holes that were aligned on top of each Au microelectrodes. About 100 μl mixed thiol solution (6-mercapto-1-hexanol and 6-mercapto-1-hexanoic acid) as described above was added on the chip surface to fill all nine PDMS holes and was incubated for 40 min. Then, the microelectrodes and wells were rinsed and dried on a hot plate at 35° C. Finally, 0.50 μl of the EDC/sulfo-NHS/peptide-Fc (H-3, H-15, or H-16) reaction mixture was added to each well using a nanoinjector mounted on a x-y-z-micromanipulator and incubated for 2 h. […]

Where “and” joins values, the source holds several entries; their conditions need not be identical. Identical values can stand only once. Where no end group is shown, it is not given here. [ ]: non-standard residue; d: D form. The star is where a group is joined. aminomethylferrocene = [Fe+2].c1cc[c-](CN*)c1.c1cc[cH-]c1; Ava = NCCCCC(=O)O

For “H2N-(CH2)4-CO-Pro-Leu-Ala-Phe-Val-Ala-NH-CH2-Fc ([Ava]PLAFVA-aminomethylferrocene) [Peptide H-15]”, the “average value of 1/τ” value (CH 1-6, 6.0 nM cathepsin B, MES buffer pH=5.0) is “(6.63±0.87)×10^−4 s^−1”. For the same substance, the “fitted value of 1/τ” value (CH 4, 6.0 nM cathepsin B, 25 mM MES buffer pH=5.0) was found to be 0.000684 s⁻¹. For the setting “6.0 nM cathepsin B”, the “1/τ AVG” value is 6.79 s⁻¹ and the “average values of 1/τ” value was “(6.8±1.8)×10^−4 s^−1”. Also, under “average of channels 1-6, H-15 modified Au MEA, 6.0 nM cathepsin B, MES buffer pH=5.0”, the “1/τ Avg” value came to 0.000663 s⁻¹. The 1/τ (individual channels 1-6 of H-15 modified Au MEA, 6.0 nM cathepsin B, MES buffer pH=5.0, FIG. 7) is 0.000684 s⁻¹ and 0.000779 s⁻¹ and 0.000645 s⁻¹ and 0.00055 s⁻¹ and 0.000734 s⁻¹ and 0.000588 s⁻¹.

For “H2N-(CH2)4-CO-Pro-Leu-Ala-Gly-Val-Ala-NH-CH2-Fc ([Ava]PLAGVA-aminomethylferrocene) [Peptide H-16]”, for the setting “6.0 nM cathepsin B”, the “1/τ AVG” value was determined as 8.90 s⁻¹ and the “average values of 1/τ” value is recorded as “(8.9±1.1)×10^−4 s^−1”.

Consider “H2N-(CH2)4-CO-Pro-Leu-Arg-Phe-Gly-Ala-NH-CH2-Fc ([Ava]PLRFGA-aminomethylferrocene) [Peptide H-3]”, for which, under “6.0 nM cathepsin B”, the “1/τ AVG” value came to 7.36 s⁻¹ and the “average values of 1/τ” value is recorded as “(7.4±0.9)×10^−4 s^−1”.

For the origin of these results see patent US12618835B2, “Multiplex microelectrode array for detection of proteases as biomarkers” (Kansas State University Research Foundation, priority 2021, dated 2026).
